From patent publication US20220372138A1 (IOMX THERAPEUTICS, published 2022)

Assays:
[1] = target: T1, human IGSF11 (VSIG3) expressed on cells (human, UniProt Q5DX21 23-431); experiment: IgG1 FACS HEK-OE
T1 sequence: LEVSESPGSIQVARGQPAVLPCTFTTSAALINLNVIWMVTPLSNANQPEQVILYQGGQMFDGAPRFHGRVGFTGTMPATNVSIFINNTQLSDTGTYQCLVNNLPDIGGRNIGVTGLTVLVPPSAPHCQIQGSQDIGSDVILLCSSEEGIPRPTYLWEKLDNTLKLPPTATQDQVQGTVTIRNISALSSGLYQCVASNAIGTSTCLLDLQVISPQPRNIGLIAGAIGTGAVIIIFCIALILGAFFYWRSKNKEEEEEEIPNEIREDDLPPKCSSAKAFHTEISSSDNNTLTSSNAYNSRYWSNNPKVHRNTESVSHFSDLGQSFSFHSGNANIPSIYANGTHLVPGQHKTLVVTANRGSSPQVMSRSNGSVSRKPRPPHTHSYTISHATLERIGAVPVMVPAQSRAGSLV

[2] = target: T2, human IGSF11 (VSIG3) ECD, His-tagged (human, UniProt Q5DX21 23-241); experiment: IgG1 ELISA EC50 <0.02 nM
T2 construct: in part bought (SinoBiological 13094-H08H); also called HIS-IGSF11; IGSF11-HIS; not shown: His tag
T2 sequence: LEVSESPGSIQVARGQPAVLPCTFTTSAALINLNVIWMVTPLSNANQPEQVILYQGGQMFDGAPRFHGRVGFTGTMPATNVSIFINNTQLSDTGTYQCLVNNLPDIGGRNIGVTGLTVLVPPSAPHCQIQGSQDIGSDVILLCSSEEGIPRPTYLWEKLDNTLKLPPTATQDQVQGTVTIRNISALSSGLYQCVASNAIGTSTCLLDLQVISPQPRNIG

[3] = target: T1, human IGSF11 (VSIG3) expressed on cells; experiment: IgG1 FACS DMS 273
[4] = target: T3, extracellular domain (ECD) of human IGSF11 (VSIG3), recombinant (human, UniProt Q5DX21 23-241); experiment: SPR
T3 construct: biotinylated where captured on streptavidin; tags of the reagent not always stated; also called IGSF11 (ECD domain); ECD-IGSF11
T3 sequence: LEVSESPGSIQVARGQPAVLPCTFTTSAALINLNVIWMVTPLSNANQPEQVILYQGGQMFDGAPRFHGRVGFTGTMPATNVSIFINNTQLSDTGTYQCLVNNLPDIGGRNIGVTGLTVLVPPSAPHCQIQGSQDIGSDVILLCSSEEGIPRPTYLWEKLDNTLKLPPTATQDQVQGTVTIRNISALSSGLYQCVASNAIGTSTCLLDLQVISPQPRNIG

[5] = target: T3, extracellular domain (ECD) of human …; experiment: ELISA RFU>1.0
[6] = target: T4, ECD of murine IGSF11, recombinant biotinylated (mouse, UniProt P0C673 23-240); experiment: ELISA RFU 0.5-1.0
T4 construct: whole entry named; also called Mouse IGSF11
T4 sequence: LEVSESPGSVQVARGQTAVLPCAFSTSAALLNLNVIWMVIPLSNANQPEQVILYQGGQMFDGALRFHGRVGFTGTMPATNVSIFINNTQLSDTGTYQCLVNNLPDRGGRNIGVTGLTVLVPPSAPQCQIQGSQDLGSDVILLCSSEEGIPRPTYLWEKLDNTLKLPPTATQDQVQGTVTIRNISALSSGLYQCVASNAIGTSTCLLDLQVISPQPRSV

[7] = target: T4, ECD of murine IGSF11, recombinant …; experiment: ELISA RFU>1.0
[8] = target: T3, extracellular domain (ECD) of human …; experiment: ELISA RFU 0.1-0.5
[9] = target: T1, human IGSF11 (VSIG3) expressed on cells; experiment: FACS, M579-A2-luc cells with IGSF11 siRNA (KD, knock-down control)
[10] = target: T1, human IGSF11 (VSIG3) expressed on cells; experiment: FACS, M579-A2-luc cells with scrambled control siRNA (SC)
[11] = target: T1, human IGSF11 (VSIG3) expressed on cells; experiment: FACS, DMS 273 cells with IGSF11 siRNA (KD, knock-down control)
[12] = target: T1, human IGSF11 (VSIG3) expressed on cells; experiment: FACS, DMS 273 cells with scrambled control siRNA (SC)
[13] = target: T3, extracellular domain (ECD) of human …; experiment: ELISA RFU 0.5-1.0
[14] = target: T4, ECD of murine IGSF11, recombinant …; experiment: Fab ELISA
[15] = target: Streptavidin (UniProt P22629 37-163, limits assumed); experiment: Fab ELISA
Sequence of Streptavidin (P22629 37-163 limits assumed): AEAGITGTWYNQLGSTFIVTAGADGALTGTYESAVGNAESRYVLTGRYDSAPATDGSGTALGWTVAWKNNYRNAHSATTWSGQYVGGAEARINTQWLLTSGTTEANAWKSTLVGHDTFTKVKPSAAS

[16] = target: T5, ECD of cynomolgus monkey IGSF11, recombinant biotinylated (cynomolgus monkey, UniProt Q5DX21 23-241 (human entry)); experiment: Fab ELISA
T5 construct: whole entry named
T5 chain: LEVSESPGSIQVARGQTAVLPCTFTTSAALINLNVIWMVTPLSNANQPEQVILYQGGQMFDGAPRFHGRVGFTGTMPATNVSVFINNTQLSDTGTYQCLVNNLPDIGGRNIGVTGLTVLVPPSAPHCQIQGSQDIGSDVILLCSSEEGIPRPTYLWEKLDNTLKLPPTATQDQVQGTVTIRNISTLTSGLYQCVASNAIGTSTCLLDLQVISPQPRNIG

B1: A-013 (IgG1 format) (antibody, V domains shown)
VH: EVQLVESGGGLIQPGGSLRLSCAASGFTVSSNYMSWVRQAPGKGLEWVSVIYSGGSTYYADSVKGRFTISRDNSKNTLYLQMNSLRAEDTAVYYCARGNPYYYGDLQVNFDYWGQGTLVTVSS
VL: QAVVTQEPSLTVSPGGTVTLTCASSTGAVTSAYYPNWFQQKPGQAPRALIYSTSNKHSWTPARFSGSLLGGKAALTLSGVQPEDEADYYCLLYYGGAWVFGGGTKLTVL
notes: human IgG1 format
EC50 [1]: 10 to 50 nM
EC50 [2]: < 0.02 nM
EC50 [3]: > 50 nM
Kd [4]: 100 to 250 nM

B2: A-019 (scFv format) (scFv, V domains shown)
VH: QVQLVQSGAEVKKPGASVKVSCKASGYTFTGYYMHWVRQAPGQGLEWMGWINPNSGNTGYAQKFQGRVTMTRNTSISTAYMELSSLRSEDTAVYYCARGGQQQLVLDDYWGQGTLVTVSS
VL: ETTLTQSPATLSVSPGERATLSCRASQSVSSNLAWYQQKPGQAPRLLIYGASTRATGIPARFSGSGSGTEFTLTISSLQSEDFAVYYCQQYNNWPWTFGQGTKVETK
notes: scFv
ELISA binding signal (RFU) [5]: > 1 rfu
ELISA binding signal (RFU) [6]: 0.5 to 1 rfu

B3: A-011 (scFv format) (scFv, V domains shown)
VH: QVQLVESGGGVVQPGRSLRLSCAASGFTFSSYAMHWVRQAPGKGLEWVAVISYDGSNKYYADSVKGRFTISRDNSKNTLYLQMNSLRAEDTAVYYCAEGGALNYYGMDVWGQGTTVTVSS
VL: SSELTQDPGVSVALGQTVRITCQGDSLRHFYATWYQQKPGQAPILVIYGKNNRPSGIPDRFSGSSSEDTASLTITGAQAEDEADYYCQSRDPRNNHLIFGGGTKLIVL
notes: scFv
ELISA binding signal (RFU) [7]: > 1 rfu
ELISA binding signal (RFU) [8]: 0.1 to 0.5 rfu

B4: A-007 (IgG1 format) (antibody, V domains shown)
VH: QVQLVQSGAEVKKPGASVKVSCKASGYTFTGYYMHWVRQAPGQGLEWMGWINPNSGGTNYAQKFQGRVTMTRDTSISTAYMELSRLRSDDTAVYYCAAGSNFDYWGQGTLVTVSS
VL: QSALTQPASVSGSPGQSITIACTGSSSDIGSFSYVSWYQQRPGKAPTLIIYGVNNRPLGVSRRFSGSKSGNTASLSISGLQAEDEADYYCSSYTRRSTVIFGGGTKLTVL
notes: human IgG1 format
% binding (FACS heat-map) [9]: 9.15%
EC50 [1]: < 10 nM
% binding (FACS heat-map) [10]: 65.6%
EC50 [2]: < 0.02 nM
EC50 [3]: < 10 nM
% binding (FACS heat-map) [11]: 34.2%
% binding (FACS heat-map) [12]: 82.3%

B5: A-016 (scFv format) (scFv, V domains shown)
VH: QVQLQESGAEVKKPGASVKVSCKASGYTFTGYYMHWVRQAPGQGLEWMGGIIPIFGTANYAQKFQGRVTITADESTSTAYMELSSLRSEDTAVYYCAGAGMELTRSGAYYYYGMDVWGQGTTVTVSS
VL: QSALTQPASVSGSPGQSITISCTGTSSDIGGYTFVSWYQQHPGKAPKVMIHDVNNRPSGISNRFSGSKSGNTASLTISGLQAEDEADYYCSSVTSTNTYVFGTGTKVTVL
notes: scFv
ELISA binding signal (RFU) [5]: > 1 rfu
ELISA binding signal (RFU) [6]: 0.5 to 1 rfu

B6: A-004 (scFv format) (scFv, V domains shown)
VH: EVQLVESGGGLVKPGGSLRLSCAASGFTFSSYSMNWVRQAPGKGLEWVSSISSSSSYIYYADSVKGRFTISRDNAKNSLYLQMNSLRAEDTAVYYCARGQLLWFGESALIDAFDIWGQGTMVTVSS
VL: EIVLTQSPSSLSASVGDRVTITCRASQSISSYLNWYQLKPGKAPKLLIYAASILQSGVPSRFSGSGSGTDFTLTISSLQPEDFAAYYCQQSYSTPRTFGQGTKLEIK
notes: scFv
ELISA binding signal (RFU) [7]: > 1 rfu
ELISA binding signal (RFU) [13]: 0.5 to 1 rfu

B7: A-022 (scFv format) (scFv, V domains shown)
VH: EVQLLESGPGLVKPSQTLSLTCTVSGGSISSGGYYWSWIRQHPGKGLEWIGYIYYSGSTYYNPSLKSRVTISVDTSKNQFSLKLSSVTAADTAVYYCARASRSTDYYFDYWGQGTLVTVSS
VL: QPGLTQPPSMSYGLGQTATLTCTGNRNNIGDQGAAWLQQHQGHPPKLLSYRNNNGPSGISERLSASRSGNTASLTISGLQPEDEADYYCSAWDSSLRAWVFGGGTKLTVL
notes: scFv
ELISA binding signal (RFU) [7]: > 1 rfu
ELISA binding signal (RFU) [13]: 0.5 to 1 rfu

B8: C-010 (Fab format) (Fab, V domains shown)
VH: QVQLVQSGAEVKKPGSSVKVSCKASGGTFSSYAISWVRQAPGQGLEWMGGIIPIFGTANYAQKFQGRVTITADESTSTAYMELSSLRSEDTAVYYCARGYGEYYPAFDVWGQGTLVTVSS
VL: SYELTQPPSVSVSPGQTASITCSGDKLGDKYASWYQQKPGQSPVLVIYQDSKRPSGIPERFSGSNSGNTATLTISGTQAEDEADYYCASYAHTHSTWVFGGGTKLTVL
notes: Fab from E. coli lysate
A450 [14]: < 1
A450 [15]: < 0.1
A450 [16]: < 1

B9: C-006 (Fab format) (Fab, V domains shown)
VH: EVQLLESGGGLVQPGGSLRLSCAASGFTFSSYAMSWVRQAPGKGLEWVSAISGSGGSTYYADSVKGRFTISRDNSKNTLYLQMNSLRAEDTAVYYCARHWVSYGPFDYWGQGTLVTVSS
VL: DIQMTQSPSSLSASVGDRVTITCRASQSISSYLNWYQQKPGKAPKLLIYAASSLQSGVPSRFSGSGSGTDFTLTISSLQPEDFATYYCQQSHQSPPITFGQGTKVEIK
notes: Fab from E. coli lysate
A450 [16]: < 1

B10: C-012 (Fab format) (Fab, V domains shown)
VH: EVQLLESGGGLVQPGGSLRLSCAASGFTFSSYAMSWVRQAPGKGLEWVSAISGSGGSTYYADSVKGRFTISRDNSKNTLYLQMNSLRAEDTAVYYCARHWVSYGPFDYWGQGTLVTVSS
VL: DIQMTQSPSSLSASVGDRVTITCRASQSISSYLNWYQQKPGKAPKLLIYAASSLQSGVPSRFSGSGSGTDFTLTISSLQPEDFATYYCQQSHQSPPITFGQGTKVEIK
notes: Fab from E. coli lysate
A450 [16]: < 1

B11: A-034 (scFv format) (scFv, V domains shown)
VH: QMQLVQSGGGLVKPGGSLRLSCAASGFTFSSYTMNWVRQAPGKGLEWVSSISSIGTYIYYADSVKGRFTISRDNAKNSLYLQMNSLRAEDTAVYYCARVLLSGSYYGYFDSWGQGTLVTVSS
VL: QSVLTQPPSVSGAPGQRVTISCTGSSSNIGAGYDVHWYQQLPGTAPKLFIYGNSNRPSGVPDRFSGSKSGTSASLAITGLQAEDEADYYCQSYDSSLSGYVFGTGTKVTVL
notes: scFv
ELISA binding signal (RFU) [5]: > 1 rfu
ELISA binding signal (RFU) [6]: 0.5 to 1 rfu

B12: A-001 (scFv format) (scFv, V domains shown)
VH: EVQLVESGGGLVKPGGSLRLSCAASGFTFSSYSMNWVRQAPGKGLEWVSSISSSSSYIYYADSVKGRFTISRDNAKNSLYLQMNSLRAEDTAVYYCVRSIIVQALGITSVFDIWGQGTMVTVSS
VL: AIRLTQSPSSLSASVGDRVTISCRASQIISNHLNWYQQKPGKAPKLLIYAASRLQTGVPSRFSGSGSETDYTLTISSLQPEDFATYYCQQSYSNPRTFGHGTKVEIK
notes: scFv
ELISA binding signal (RFU) [7]: > 1 rfu
ELISA binding signal (RFU) [5]: > 1 rfu

B13: A-035 (scFv format) (scFv, V domains shown)
VH: QVQLVQSGAEVKKPGASVKVSCKASGYTFTGYYMHWVRQAPGQGLEWMGWINPNSGNTGYAQKFQGRVTMTRNTSISTAYMELSSLRSEDTAVYYCARGRLERGYWYFDLWGRGTLVTVSS
VL: NFMLTQPHSVSESPGRTVTISCTRSSGSITSNYVQWYQQRPGSAPTILIYEDKERPSEVPDRFSGSIDISSNSASLTISGLKTEDEADYYCQSYGGTSQGVLFGGGTKVTVL
notes: scFv
ELISA binding signal (RFU) [7]: > 1 rfu
ELISA binding signal (RFU) [13]: 0.5 to 1 rfu
